Laboratory results taken from patent publication US20170002061A1 (ALLIGATOR BIOSCIENCE, published 2017).

How the values were obtained:
CD40 on B cells = CD40 on B cells (UniProt P25942 21-277, limits assumed); assay: cell-based or functional assay
[1] = molecular target: T1, Fc-fused CD40 (Ancell, #504-820) (human, UniProt P25942 21-193); assay: ELISA, Fc-fused CD40 coated at 0.05 ug/ml, IgG in serial dilution, anti human Ig-Fc-HRP
T1 construct: not shown: Fc part of a bought fusion protein
Description: For the CD40 binding ELISA, high binding flat bottom LIA plates (Greiner #655074) were coated with Fc-fused CD40 (Ancell, #504-820) at 0.05 μg/ml, and milk powder were used at 3% for blocking and at 1% for dilution. The antibodies to be tested were added in serial dilutions starting at 2000 ng/ml and detection was carried out using HRP conjugated goat anti human Ig-Fc (Jackson ImmunoResearch, #109-035-098) and Super Signal Pico Chemiluminescent (ThermoScientific, #37069) was used as substrate.

[2] = molecular target: T2, LTBRhfc (R&Dsystems, USA) (human, UniProt P36941 28-227, limits assumed); assay: SPR (Biacore 3000), LTBRhfc amine-coupled to CM5, IgG as analyte, 37 C, pH 7.3
T2 construct: Bought protein; also called Fc-fused LTBR (R&D Systems, #629-LR); not shown: Fc part ('hfc') of a bought fusion protein
T2 sequence (P36941 28-227 limits assumed): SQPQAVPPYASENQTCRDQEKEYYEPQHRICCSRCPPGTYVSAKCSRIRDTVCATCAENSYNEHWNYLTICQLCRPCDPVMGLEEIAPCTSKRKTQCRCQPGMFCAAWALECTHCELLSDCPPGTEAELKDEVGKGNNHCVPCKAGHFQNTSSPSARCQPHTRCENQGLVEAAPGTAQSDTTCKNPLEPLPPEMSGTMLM
Description: The LTBR binding antibody clones were screened, selected and cloned into full IgG format as described above for CD40. Binding to LTBR for two selected anti-LTBR antibody clones was characterized by surface plasmon resonance (SPR). SPR analysis of LTBR antibodies was performed according to standard protocols. The LTBRhfc (R&Dsystems, USA) was immobilized to the BIAcore sensorchip, CM5, using conventional amine coupling. The anti-LTBR antibodies (serially diluted ⅓ from 1-0.012 nM) were analysed for binding in HBS-P (GE, BR-1003-68) at a flow rate of 30 μl/min at 37° C. and pH 7.3. The association was followed for 3 minutes and the dissociation for 10 minutes. Regeneration was performed twice using 50 mM NaOH for 30 seconds. The kinetic parameters and the affinity constants were calculated using BIAevaluation 4.1 software, and samples were run, using the Biacore 3000 instrument according to manufacturer's protocols.

T1 sequence (P25942 21-193 limits assumed): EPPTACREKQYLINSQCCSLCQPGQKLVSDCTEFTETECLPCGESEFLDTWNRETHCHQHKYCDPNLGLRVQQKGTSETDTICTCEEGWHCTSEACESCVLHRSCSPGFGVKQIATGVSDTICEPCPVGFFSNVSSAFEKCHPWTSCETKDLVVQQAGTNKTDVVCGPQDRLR
Sequence of CD40 on B cells (P25942 21-277 limits assumed): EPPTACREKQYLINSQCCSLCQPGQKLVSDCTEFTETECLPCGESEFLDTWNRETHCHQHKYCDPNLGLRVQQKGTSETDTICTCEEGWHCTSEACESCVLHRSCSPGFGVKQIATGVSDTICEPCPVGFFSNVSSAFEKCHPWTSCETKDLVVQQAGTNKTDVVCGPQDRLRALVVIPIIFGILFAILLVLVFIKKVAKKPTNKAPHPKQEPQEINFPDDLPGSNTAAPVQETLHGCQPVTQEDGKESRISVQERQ

Row | EC50 B cell (ug/ml); B cell proliferation, ATP content by Cell-titer glow (CD40 on B cells) | EC50 [1] | Kd [2] | koff [2] | kon [2] | Binder
1 | 0.44 µg/mL |  |  |  |  | B03 (antibody, V domains shown) VH: not shown VL: DIQMTQSPSSLSASVGDRVTITCRASQSISSYLNWYQQKPGKAPKLLIYAASSLQSGVPSRFSGSGSGTDFTLTISSLQPEDFATYYCQQGYHVWLYTFGQGTKLEIK
2 | 1 µg/mL | 1.4 µg/mL |  |  |  | 1136/1137 (antibody, V domains shown, From library AL2) VH: not shown VL: DIQMTQSPSSLSASVGDRVTITCRASQSISSYLNWYQQKPGKAPKLLIYAASSLQSGVPSRFSGSGSGTDFTLTISSLQPEDFATYYCQQAYYAGLFTFGQGTKLEIK
3 | 3.6 µg/mL | 0.58 µg/mL |  |  |  | 1146/1147 (antibody, V domains shown, From library AL2) VH: not shown VL: DIQMTQSPSSLSASVGDRVTITCRASQSISSYLNWYQQKPGKAPKLLIYAASSLQSGVPSRFSGSGSGTDFTLTISSLQPEDFATYYCQQYYYYPFTFGQGTKLEIK
4 |  |  | 0.734 nM | 0.00158 s⁻¹ | 2.23e+06 M⁻¹ s⁻¹ | LTBR-3 (antibody, V domains shown, From library AL1) VH: not shown VL: DIQMTQSPSSLSASVGDRVTITCRASQSISSYLNWYQQKPGKAPKLLIYAASSLQSGVPSRFSGSGSGTDFTLTISSLQPEDFATYYCQQGWWYPLTFGQGTKLEIK
5 | 2.3 µg/mL | 2.2 µg/mL |  |  |  | 1148/1149 (antibody, V domains shown, From library AL2) VH: not shown VL: DIQMTQSPSSLSASVGDRVTITCRASQSISSYLNWYQQKPGKAPKLLIYAASSLQSGVPSRFSGSGSGTDFTLTISSLQPEDFATYYCQQAYYFPHTFGQGTKLEIK
6 | 0.7 µg/mL | 0.034 µg/mL |  |  |  | 1107/1108 (antibody, V domains shown, From library AL1) VH: not shown VL: DIQMTQSPSSLSASVGDRVTITCRASQSISSYLNWYQQKPGKAPKLLIYAASSLQSGVPSRFSGSGSGTDFTLTISSLQPEDFATYYCQQYGVYPFTFGQGTKLEIK
